Source: paper PMC8307404, “Crystal Structure-Guided Design of Bisubstrate Inhibitors and Photoluminescent Probes for Protein Kinases of the PIM Family” (Molecules, 2021)
Square brackets hold non-standard residues; d marks the D form. Peptide text beside a SMILES is read from it. * marks the point of attachment. X3 = O=C(CCCCCNCc1nc2c(sc3cc(Br)cnc32)c(=O)[nH]1)*

How the values were obtained:
Experiment in all cases: Kinase profiling (radiometric filter-binding)
Assay type in all cases: biochemical
[1] = target: PIM1 (Homo sapiens, UniProt P11309); details: PIM1, 1 µM inhibitor; for remaining activity at 1 µM: read-out: Residual activity, %
Chain of PIM1 (P11309 whole entry): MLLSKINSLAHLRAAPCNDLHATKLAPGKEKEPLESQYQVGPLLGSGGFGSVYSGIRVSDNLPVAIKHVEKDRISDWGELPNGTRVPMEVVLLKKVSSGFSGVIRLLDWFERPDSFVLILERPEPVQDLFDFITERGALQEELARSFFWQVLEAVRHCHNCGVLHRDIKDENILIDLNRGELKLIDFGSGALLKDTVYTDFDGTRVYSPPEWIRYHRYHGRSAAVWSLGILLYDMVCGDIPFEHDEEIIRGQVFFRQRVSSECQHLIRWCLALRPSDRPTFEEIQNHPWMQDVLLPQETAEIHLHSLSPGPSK
How it was run: (§1)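 Single-point selectivity screen at 1 µM total inhibitor concentration across a panel of 139 or 140 human PKs, using radioactive filter-binding detection with ATP near or below KM; data are % activity remaining versus untreated control.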

[2] = target: T1, DYRK2 (Homo sapiens, UniProt Q92630); details: DYRK2, 1 µM inhibitor; read-out: Residual activity, %
T1 sequence (Q92630 1-601): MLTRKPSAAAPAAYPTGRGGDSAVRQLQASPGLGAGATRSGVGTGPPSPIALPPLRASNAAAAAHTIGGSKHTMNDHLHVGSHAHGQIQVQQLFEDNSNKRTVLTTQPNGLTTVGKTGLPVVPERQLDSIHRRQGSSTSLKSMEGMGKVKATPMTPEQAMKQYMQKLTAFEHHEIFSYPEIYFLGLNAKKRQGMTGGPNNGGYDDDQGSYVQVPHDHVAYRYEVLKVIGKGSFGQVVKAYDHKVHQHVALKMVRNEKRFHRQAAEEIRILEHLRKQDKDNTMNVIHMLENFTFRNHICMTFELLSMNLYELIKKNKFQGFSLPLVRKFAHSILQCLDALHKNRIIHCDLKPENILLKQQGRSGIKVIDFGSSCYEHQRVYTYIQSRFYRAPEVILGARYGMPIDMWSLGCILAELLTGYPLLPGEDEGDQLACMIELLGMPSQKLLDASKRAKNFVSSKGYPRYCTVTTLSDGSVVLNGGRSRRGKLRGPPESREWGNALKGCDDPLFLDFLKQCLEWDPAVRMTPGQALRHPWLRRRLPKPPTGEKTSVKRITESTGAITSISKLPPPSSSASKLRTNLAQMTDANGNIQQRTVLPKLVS
How it was run: as §1

[3] = target: ERK2 (Homo sapiens, UniProt P28482); details: ERK2, 1 µM inhibitor; read-out: Residual activity, %
Chain of ERK2 (P28482 whole entry): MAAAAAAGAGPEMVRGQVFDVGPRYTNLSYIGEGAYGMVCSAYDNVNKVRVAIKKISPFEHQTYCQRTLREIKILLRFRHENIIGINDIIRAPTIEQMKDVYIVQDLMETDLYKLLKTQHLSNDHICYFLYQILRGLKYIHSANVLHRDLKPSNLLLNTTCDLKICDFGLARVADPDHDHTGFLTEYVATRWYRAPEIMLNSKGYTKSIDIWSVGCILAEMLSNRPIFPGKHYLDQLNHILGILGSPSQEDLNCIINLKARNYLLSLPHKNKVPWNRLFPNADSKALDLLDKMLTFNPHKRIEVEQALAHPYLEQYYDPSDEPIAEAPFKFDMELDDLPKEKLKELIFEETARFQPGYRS
How it was run: as §1

[4] = target: MAPKAP-K2 (Homo sapiens, UniProt P49137); details: MAPKAP-K2, 1 µM inhibitor; read-out: Residual activity, %
Chain of MAPKAP-K2 (P49137 whole entry): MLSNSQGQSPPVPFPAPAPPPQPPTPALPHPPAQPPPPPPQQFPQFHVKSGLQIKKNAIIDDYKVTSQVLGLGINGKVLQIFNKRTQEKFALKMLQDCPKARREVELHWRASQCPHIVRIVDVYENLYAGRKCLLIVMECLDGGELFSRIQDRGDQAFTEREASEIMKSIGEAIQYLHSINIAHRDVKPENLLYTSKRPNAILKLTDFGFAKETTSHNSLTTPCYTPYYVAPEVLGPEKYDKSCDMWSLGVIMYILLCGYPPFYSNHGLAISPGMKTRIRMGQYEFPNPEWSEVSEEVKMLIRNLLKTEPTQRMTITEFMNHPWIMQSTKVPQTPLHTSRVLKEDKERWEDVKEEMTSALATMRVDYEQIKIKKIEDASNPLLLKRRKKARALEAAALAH
How it was run: as §1

[5] = target: STK33 (Homo sapiens, UniProt Q9BYT3); details: STK33, 1 µM inhibitor; read-out: Residual activity, %
Chain of STK33 (Q9BYT3 whole entry): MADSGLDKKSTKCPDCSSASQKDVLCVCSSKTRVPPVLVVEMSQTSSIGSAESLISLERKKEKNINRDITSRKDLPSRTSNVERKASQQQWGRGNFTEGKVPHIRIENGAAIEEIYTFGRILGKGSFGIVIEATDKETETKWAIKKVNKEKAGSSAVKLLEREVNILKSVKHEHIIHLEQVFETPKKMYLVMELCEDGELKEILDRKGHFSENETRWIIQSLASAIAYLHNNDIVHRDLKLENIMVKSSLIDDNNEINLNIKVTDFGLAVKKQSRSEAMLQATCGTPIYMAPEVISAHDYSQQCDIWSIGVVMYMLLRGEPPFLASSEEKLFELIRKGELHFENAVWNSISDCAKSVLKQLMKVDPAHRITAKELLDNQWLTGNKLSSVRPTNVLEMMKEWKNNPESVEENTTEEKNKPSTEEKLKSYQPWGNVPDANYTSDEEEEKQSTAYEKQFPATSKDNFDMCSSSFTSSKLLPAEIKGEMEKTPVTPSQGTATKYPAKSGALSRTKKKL
How it was run: as §1

[6] = target: p38 MAPK (Homo sapiens, UniProt Q16539); details: first of four lines (Greek letter lost), 1 µM inhibitor, read-out: Residual activity, %
Chain of p38 MAPK (Q16539 whole entry): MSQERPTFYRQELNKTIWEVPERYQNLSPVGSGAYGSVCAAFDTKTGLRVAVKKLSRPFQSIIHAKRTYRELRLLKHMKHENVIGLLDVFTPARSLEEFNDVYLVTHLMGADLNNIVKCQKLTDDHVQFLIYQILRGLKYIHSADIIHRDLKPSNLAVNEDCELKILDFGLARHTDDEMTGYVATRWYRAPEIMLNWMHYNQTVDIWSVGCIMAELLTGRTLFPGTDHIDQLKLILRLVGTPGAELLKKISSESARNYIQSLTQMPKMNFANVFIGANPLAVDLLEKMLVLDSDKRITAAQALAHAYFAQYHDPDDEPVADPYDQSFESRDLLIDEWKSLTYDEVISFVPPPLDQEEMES
How it was run: as §1

[7] = target: IRR (Homo sapiens, UniProt P14616); details: 1 µM inhibitor, read-out: Residual activity, %
How it was run: as §1

[8] = target: T2, TSSK1 (Homo sapiens, UniProt Q9BXA7); details: TSSK1, 1 µM inhibitor; read-out: Residual activity, %
T2 sequence (Q9BXA7 1-367): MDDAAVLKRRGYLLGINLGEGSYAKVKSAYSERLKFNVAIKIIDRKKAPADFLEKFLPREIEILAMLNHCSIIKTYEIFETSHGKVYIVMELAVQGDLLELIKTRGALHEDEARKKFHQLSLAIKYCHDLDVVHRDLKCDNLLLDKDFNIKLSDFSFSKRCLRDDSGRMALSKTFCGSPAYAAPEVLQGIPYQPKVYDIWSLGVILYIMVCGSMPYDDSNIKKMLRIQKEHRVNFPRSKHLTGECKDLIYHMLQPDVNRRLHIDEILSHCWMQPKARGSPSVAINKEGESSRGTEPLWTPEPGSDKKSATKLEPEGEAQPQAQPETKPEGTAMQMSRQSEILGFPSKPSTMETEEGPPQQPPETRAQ
How it was run: as §1

[9] = target: MPSK1 (Homo sapiens, UniProt O75716); details: MPSK1, 1 µM inhibitor; read-out: Residual activity, %
Chain of MPSK1 (O75716 whole entry): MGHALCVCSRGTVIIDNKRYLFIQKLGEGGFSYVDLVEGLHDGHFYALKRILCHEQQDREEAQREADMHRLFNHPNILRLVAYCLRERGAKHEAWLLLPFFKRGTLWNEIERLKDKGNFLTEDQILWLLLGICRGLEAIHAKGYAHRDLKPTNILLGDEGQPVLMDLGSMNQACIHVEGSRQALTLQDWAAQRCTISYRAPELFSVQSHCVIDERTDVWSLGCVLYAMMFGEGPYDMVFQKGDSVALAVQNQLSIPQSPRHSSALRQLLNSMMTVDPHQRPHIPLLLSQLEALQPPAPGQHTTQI
How it was run: as §1

[10] = target: MINK1 (Homo sapiens, UniProt Q8N4C8); details: MINK1, 1 µM inhibitor; read-out: Residual activity, %
Chain of MINK1 (Q8N4C8 whole entry): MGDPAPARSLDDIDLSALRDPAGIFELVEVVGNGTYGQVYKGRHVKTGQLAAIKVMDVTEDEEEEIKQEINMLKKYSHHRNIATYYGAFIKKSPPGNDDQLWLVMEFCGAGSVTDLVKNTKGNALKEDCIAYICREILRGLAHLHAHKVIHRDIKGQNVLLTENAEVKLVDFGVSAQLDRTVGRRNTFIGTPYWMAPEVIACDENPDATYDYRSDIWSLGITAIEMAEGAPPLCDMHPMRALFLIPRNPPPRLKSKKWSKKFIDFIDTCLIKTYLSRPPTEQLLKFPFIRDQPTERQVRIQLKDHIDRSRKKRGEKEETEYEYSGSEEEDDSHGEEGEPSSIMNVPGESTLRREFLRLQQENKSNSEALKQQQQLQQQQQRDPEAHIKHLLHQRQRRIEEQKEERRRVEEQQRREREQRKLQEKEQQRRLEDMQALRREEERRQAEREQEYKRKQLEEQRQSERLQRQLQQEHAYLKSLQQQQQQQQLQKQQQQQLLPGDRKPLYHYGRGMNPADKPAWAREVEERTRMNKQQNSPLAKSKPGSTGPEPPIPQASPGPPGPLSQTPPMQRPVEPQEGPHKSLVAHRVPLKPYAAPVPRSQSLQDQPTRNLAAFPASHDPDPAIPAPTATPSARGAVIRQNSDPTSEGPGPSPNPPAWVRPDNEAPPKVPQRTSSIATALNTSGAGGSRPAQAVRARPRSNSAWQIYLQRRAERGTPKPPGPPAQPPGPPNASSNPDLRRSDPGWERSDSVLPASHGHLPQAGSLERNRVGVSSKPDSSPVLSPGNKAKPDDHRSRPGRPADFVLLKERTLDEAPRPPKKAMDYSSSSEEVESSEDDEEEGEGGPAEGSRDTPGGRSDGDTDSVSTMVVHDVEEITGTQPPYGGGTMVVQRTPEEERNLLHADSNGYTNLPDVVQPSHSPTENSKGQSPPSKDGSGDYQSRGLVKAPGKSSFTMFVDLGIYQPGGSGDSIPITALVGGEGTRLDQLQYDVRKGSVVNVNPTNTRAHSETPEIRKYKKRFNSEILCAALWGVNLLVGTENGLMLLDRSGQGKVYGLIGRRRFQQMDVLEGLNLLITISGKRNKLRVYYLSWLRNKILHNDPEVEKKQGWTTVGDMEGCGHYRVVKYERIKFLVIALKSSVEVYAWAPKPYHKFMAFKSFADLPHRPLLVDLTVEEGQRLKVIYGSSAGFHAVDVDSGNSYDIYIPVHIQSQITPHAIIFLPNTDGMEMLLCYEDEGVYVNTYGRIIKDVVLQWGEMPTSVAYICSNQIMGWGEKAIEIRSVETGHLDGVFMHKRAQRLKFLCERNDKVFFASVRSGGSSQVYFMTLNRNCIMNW
How it was run: as §1

[11] = target: T3, TTK (Homo sapiens, UniProt P33981); details: 1 µM inhibitor, read-out: Residual activity, %
T3 sequence (P33981 1-857): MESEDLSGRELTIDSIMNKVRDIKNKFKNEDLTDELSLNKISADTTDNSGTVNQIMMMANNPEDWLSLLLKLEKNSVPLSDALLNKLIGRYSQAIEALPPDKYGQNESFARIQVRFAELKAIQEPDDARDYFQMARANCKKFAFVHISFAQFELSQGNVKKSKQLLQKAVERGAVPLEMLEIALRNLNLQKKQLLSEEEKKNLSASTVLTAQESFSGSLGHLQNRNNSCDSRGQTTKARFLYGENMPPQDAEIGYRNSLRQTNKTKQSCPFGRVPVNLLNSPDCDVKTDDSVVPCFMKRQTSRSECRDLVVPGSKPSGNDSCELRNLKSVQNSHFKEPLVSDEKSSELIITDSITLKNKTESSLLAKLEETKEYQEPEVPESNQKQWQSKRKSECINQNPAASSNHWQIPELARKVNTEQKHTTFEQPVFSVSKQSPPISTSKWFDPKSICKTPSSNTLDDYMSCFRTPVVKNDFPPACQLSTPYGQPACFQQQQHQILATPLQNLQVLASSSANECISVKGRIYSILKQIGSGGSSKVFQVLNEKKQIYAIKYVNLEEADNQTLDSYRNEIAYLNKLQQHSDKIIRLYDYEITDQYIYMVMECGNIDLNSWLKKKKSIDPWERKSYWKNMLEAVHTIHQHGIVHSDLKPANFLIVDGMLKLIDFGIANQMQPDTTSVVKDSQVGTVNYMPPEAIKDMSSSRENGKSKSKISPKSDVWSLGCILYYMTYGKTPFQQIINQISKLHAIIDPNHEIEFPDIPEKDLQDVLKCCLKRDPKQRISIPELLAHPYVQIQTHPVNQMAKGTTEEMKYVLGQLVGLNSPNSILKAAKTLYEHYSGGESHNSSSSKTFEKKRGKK
How it was run: as §1

[12] = target: PAK5 (Homo sapiens, UniProt Q9P286); details: PAK5, 1 µM inhibitor; read-out: Residual activity, %
Chain of PAK5 (Q9P286 whole entry): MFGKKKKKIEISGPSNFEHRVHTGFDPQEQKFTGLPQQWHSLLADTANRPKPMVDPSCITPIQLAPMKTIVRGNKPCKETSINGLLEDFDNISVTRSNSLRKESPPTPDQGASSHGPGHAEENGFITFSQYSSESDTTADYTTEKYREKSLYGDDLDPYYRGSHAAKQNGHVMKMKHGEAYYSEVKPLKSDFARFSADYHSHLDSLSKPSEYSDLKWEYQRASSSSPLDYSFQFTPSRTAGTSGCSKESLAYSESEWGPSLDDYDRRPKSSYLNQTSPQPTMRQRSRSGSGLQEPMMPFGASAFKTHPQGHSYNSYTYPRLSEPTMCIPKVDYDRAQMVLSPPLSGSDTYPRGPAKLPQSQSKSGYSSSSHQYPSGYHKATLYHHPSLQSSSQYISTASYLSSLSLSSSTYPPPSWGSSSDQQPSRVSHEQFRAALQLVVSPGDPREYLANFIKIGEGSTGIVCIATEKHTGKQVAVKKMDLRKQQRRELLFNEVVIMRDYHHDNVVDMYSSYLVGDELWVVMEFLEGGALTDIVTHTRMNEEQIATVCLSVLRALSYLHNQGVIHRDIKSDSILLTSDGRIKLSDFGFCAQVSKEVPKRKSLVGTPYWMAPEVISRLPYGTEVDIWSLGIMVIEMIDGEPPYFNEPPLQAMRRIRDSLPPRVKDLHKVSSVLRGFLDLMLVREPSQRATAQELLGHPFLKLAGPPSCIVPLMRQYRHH
How it was run: as §1

Structure (SMILES)	remaining activity at 1 µM [1] [%]	remaining activity at 1 µM [2] [%]	remaining activity at 1 µM [3] [%]	remaining activity at 1 µM [4] [%]	remaining activity at 1 µM [5] [%]	remaining activity at 1 µM [6] [%]	remaining activity at 1 µM [7] [%]	remaining activity at 1 µM [8] [%]	remaining activity at 1 µM [9] [%]	remaining activity at 1 µM [10] [%]	remaining activity at 1 µM [11] [%]	remaining activity at 1 µM [12] [%]	Residual activity, % [1]
N=C(N)NCCC[C@@H](NC(=O)CCCCCNC(=O)Cn1cnc2c(I)c(I)c(I)c(I)c21)C(=O)N[C@H](CCCNC(=N)N)C(=O)N[C@H](CCCNC(=N)N)C(=O)N[C@H](CCCNC(=N)N)C(=O)N[C@H](CCCNC(=N)N)C(=O)N[C@H](CCCNC(=N)N)C(=O)N[C@H](CCCCN)C(N)=O [ARC-3125, TIBI-CH2-C(=O)-Ahx-(D-Arg)6-D-Lys-NH2]	0	54 ± 6	161 ± 4	51 ± 5	84 ± 20	53 ± 8	20 ± 34	63 ± 6	75 ± 3	86 ± 1	45 ± 1	25 ± 6	–
N=C(N)NCCC[C@@H](NC(=O)CCCCCNCc1nc2c(sc3cc(Br)cnc32)c(=O)[nH]1)C(=O)N[C@H](CCCNC(=N)N)C(=O)N[C@H](CCCNC(=N)N)C(=O)N[C@H](CCCNC(=N)N)C(=O)N[C@H](CCCNC(=N)N)C(=O)N[C@H](CCCNC(=N)N)C(=O)N[C@H](CCCCN)C(N)=O [ARC-3126, BPTP-Ahx-(D-Arg)6-D-Lys-NH2] (X3-[dR][dR][dR][dR][dR][dR][dK]-NH2)	0	88 ± 6	166 ± 1	–	107 ± 6	116 ± 4	75 ± 4	97 ± 16	79 ± 11	104 ± 16	110 ± 4	89 ± 2	zero
N=C(N)NCCC[C@@H](NC(=O)CNC(=O)[C@@H](CCCNC(=N)N)NC(=O)[C@@H](CCCNC(=N)N)NC(=O)CCCCCCCNCc1nc2c(sc3cc(Br)cnc32)c(=O)[nH]1)C(=O)N[C@H](CCCCN)C(N)=O [Compound 1, BPTP-Aoc-(D-Arg)2-Gly-D-Arg-D-Lys-NH2]	9	85 ± 17	101 ± 14	107 ± 10	110 ± 2	113 ± 10	99 ± 2	98 ± 9	113 ± 21	129 ± 2	113	112 ± 3	–
N=C(N)NCCC[C@@H](NC(=O)CNC(=O)[C@@H](CCCNC(=N)N)NC(=O)[C@@H](CCCNC(=N)N)NC(=O)CCCCCCCNCc1nc2c(sc3ccc(Br)cc32)c(=O)[nH]1)C(=O)N[C@H](CCCCN)C(N)=O [Compound 2, BBTP-Aoc-(D-Arg)2-Gly-D-Arg-D-Lys-NH2]	5 ± 3	64 ± 5	102 ± 1	107 ± 2	106 ± 3	116 ± 10	99 ± 5	108	113 ± 15	106 ± 13	94 ± 15	100 ± 2	–
N=C(N)NCCC[C@@H](NC(=O)CNC(=O)[C@@H](CCCNC(=N)N)NC(=O)[C@@H](CCCNC(=N)N)NC(=O)Cn1cc(CNCc2nc3c(sc4ccc(Br)cc43)c(=O)[nH]2)nn1)C(=O)N[C@H](CCCCN)C(N)=O [Compound 3, BBTP-Amt-(D-Arg)2-Gly-D-Arg-D-Lys-NH2]	5 ± 1	83 ± 22	104 ± 5	114 ± 4	91	110 ± 7	110 ± 1	100 ± 10	110 ± 2	133 ± 14	86 ± 9	92 ± 5	–
